According to US20230095569A1 (ANTENGENE BIOLOGICS, published 2023):

Legend:
[1] = target: T1, human Claudin18.2 (CLDN18.2) (human, UniProt P56856 1-261); experiment: FACS on CHOK1-18.2 cells;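 also: antibody binding to the cells detected with a fluorescently labelled secondary antibody and read out as median fluorescence intensity by flow cytometry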
T1 construct: the cell line is named under assay; also called human Claudine18.2; hClaudin18.2
Procedure: (§1) The specificity and cross-reactivity of these subclones were confirmed with FACs analysis. […] Fluorescent dye-conjugated secondary antibody was used to detect the binding of the primary antibody with the cells. Median fluorescence intensity (MFI) was measured by FACs analysis.

[2] = target: T2, human Claudin18.1 (CLDN18.1) (human, UniProt P56856 1-261); experiment: FACS on CHOK1-18.1 cells;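 as to FACS MFI: test antibody binding to the cells detected by flow cytometry using a fluorescent dye-labelled secondary antibody, read out as median fluorescence intensity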;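 as to result: antibody binding to cells detected with a fluorescently labelled secondary antibody, read out as median fluorescence intensity (MFI) by flow cytometry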
T2 construct: whole, on cells; also called human Claudine18.1
Procedure: as §1

[3] = target: T2, human Claudin18.1 (CLDN18.1); experiment: FACS on CHOK1-18.1 cells; remark: listed apart in the source;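 as to FACS MFI: test antibody binding to the cells detected by flow cytometry using a fluorescent dye-labelled secondary antibody, read out as median fluorescence intensity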;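 as to result: antibody binding to cells detected with a fluorescently labelled secondary antibody, read out as median fluorescence intensity (MFI) by flow cytometry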
Procedure: as §1

Row | Binder | FACS MFI [1] | binding result [2] | FACS MFI [3]
1 | Ab02 (antibody, V domains shown, mouse monoclonal (hybridoma)) VH: QVQLKESGPGLVAPSQSLSITCTVSGFSLTSYAINWVRQPPGKGLEWLGVIWTGGGTNYNSALKSRLSINKDNSKSQVFLKMNSLQTDDTARYYCARFYDGYYSWFAYWGQGTLVTVSA VL: DIVMTQSHKFMSTSVGDRVSITCKASQDVGTAVTWYQQKPGQSPKLLIYWASTRHTGVPDRFTGSGSGTDFTLTISNVQSEDLADYFCQQYSSYPFTFGSGTKLEIK | 1380 | no binding | 101
2 | Ab05 (antibody, V domains shown, mouse monoclonal (hybridoma)) VH: DVKLVESGEDLVKPGGSLKLSCAASGFTFSNYAMSWVRQTPEKRLEWVAYVSSGGDYIYYADTVKGRFIISRDNARNTLYLQMNSLRSEDTAMYYCARVYFGNSLDYWGQGTTLTVSS VL: DIVMTQSPSSLTVTAGEKVTLSCKSSQSLLNGGNQKNYLTWYQQRPGQPPKLLIYWASTRESGVPDRFTGSGSGTDFTLIISSVQAEDLAVYYCQNDYYYPWTFGGGTKLEIK | 16000 | no binding | 97
3 | Ab06 (antibody, V domains shown, mouse monoclonal (hybridoma)) VH: EVQLVASGGGLVKPGGSLKLSCAASGITFRSYAMSWVRQTPEKRLEWVATITDGGSYIFYPDNVKGRFTISGDHAKNNLYLQMSHLKSEDTALYFCVRLYYGNSFAYWGQGTLVTVSA VL: DIVMTQSPSSLTVTAGEKVTLNCKSSQSLFNSGNQKNYLTWYQQKPGQPPKLLIYWASTRESGVPDRFTGSGSGTDFTLTFSSVQAEDLAVYYCQNAYIYPFTFGSGTKLEIK | 46100 | no binding | 789
4 | Ab08 (antibody, V domains shown, mouse monoclonal (hybridoma)) VH: QVQLQQPGAELVKPGASVKLSCKASGYTFTSYLLHWVKQRPGQGLEWIGMIHPNGGSTNYNEKFKTKATLTVDKSSSTAYMQLSSLTSEDSAVYYCAPVYFGNSFAYWGQGTLVTVSA VL: DIVMTQSPSSLTVTAGEKVTMSCKSSQSLLNSGNQKNYLTWYQQKPGQPPKLLIYWASTRESGVPDRFTGSGSGTDFTLTISSVQAEDLAVYYCQNDYYYPFTFGSGTKLEKK | 19400 | no binding | 97
5 | Ab14 (antibody, V domains shown, mouse monoclonal (hybridoma)) VH: QVQLQQPGAELVKPGASVKLSCKASGYTFTSYLLHWVKQRPGQGLEWIGMIHPNGGSTNYNEKFKTKATLTVDKSSSTAYMQLSSLTSEDSAVYYCAPVYFGNSFAYWGQGTLVTVSA VL: DIVMTQSPSSLTVTAGEKVTMSCKSSQSLLNSGNQKNYLTWYQQKPGQPPKLLIYWASTRESGVPDRFTGSGSGTDFTLTISSVQAEDLAVYYCQNDYYYPFTFGSGTKLEKK | 21400 | no binding | 97
6 | Ab09 (antibody, V domains shown, mouse monoclonal (hybridoma)) VH: EVQLQQSGPELVKPGTSVKMSCKASGYTFTDYNMHWVKLSHGKSLEWIGYINPNNGGTIYNQRFKGKATLTVNKSSRTAYMDLRSLTSEDSAVYYCARQGYYGNSMDYWGQGNSVTVSS VL: DIVMTQSPSSLTVTPGERVTMSCKSSQSLLNGGNQRNYLTWYQQKPGQPPKLLIYWASTRESGVPDRFAGSGSGTDFTLTISRVQAEDLSFYYCQNSYFYPFTFGSGTKLDLR | 17100 | no binding | 95.6
7 | Ab35 (antibody, V domains shown, mouse monoclonal (hybridoma)) VH: DVFLQESGPGLVKPSQSLSLTCTVTGYSITSDYAWNWIRQFPGNKLEWVTYIGYSGTTSYNPSLKSRISITRDTSKNQFFLQLNSVSTEDTATYYCVRRGSYYGSYWFFDVWGAGTTVTVSS VL: QVVLSQSPAILSASPGEKVTMTCRASSSVSYMHWYQQKPGSSPKPWIYATSNLASGVPPHFSGSGSGTSYSLTISRVEAEDAATYYCQQWTSNPPTFGGGTKLEIK | 11300 | no binding | 92.6
8 | Ab07 (antibody, V domains shown, mouse monoclonal (hybridoma)) VH: EVQLQQSGPELVKPGASVKISCKASGYSFTDYFMNWVKQSHGKGLEWIGRINPYNGDTFYNQKFKGKATLTVDKSSSTAHMELLSLTSEDFAVYYCALYDGYWGAFVYWGQGTLVTVSA VL: DIQMTQSPASLSVFVGETVTITCRASENIYSNLAWYQQKQGKSPQLLVYAATNLADGVPSRFSGSGSGTQYSLKINSLQSEDFGSYYCQHFWGTPLTFGAGTKLELK | 13700 | no binding | 764
9 | Ab12 (antibody, V domains shown, mouse monoclonal (hybridoma)) VH: EVMLVESGGGLVKPGGSLKLSCAASGFTFSSYTMSWVRQTPEKRLEWVATIIGGYGNTYYADSVKGRFTISRDSAKNTLYLQMLSLRSEDTALYYCTRLGQTQRNAMDYWGQGTSVTVSS VL: DILMTQSPSSLSVSAGEKVTMSCKSSQSLLNSGNQRNYLAWYQQKPGQPPKLLIYGASTRESGVPDRFTGSGSGTDFTLTISSVQAEDLAVYYCQNDYYYPLTFGAGTKLELK | 8820 | no binding | 83.8
10 | Ab16 (antibody, V domains shown, mouse monoclonal (hybridoma)) VH: EVMLVESGGGLVKPGGSLKLSCAASGFTFNSYTMSWVRQTPEKRLEWVATITVIGGNTYYLDSVKGRFTISIDNGKNTLYLQMSSLRSEDTALYYCARMGQTQRNAMDYWGQGTSVTVSS VL: DIVMTQSPSSLSVSAGQKVTMRCKSSQSLLNSGNQKNYLAWYQQKLGQPPKLLIYGASTRESGVPDRFSGSGSGTDFTLTITSVQAEDLAVYYCQNDYSFPLTFGAGTKLELK | 8170 | no binding | 80.8
11 | Ab13 (antibody, V domains shown, mouse monoclonal (hybridoma)) VH: EVRLVESGGGLVKPGGSLKLSCAGSGFTFSSYTMSWVRQTPEKRLEWVATITIGVNIYYLDSVKGRFTISRDNAKNTLYLQMNSLRSEDTALYYCTRLGQTQRNAMDYWGQGTSVTVSS VL: DIVMTQSPTSLSVSAGEKVTMTCKSSQSLLNSGNQKNYLAWYQEKPGQPPKLLIYGASTRESGVPDRFTGSGSGTDFTLTISSVQAEDLAVYYCQNNHFYPLTFGAGTKLELK | 7460 | no binding | 82.3
12 | Ab15 (antibody, V domains shown, mouse monoclonal (hybridoma); also called mAb Ab15) VH: EVMLVESGGDLVKPGGSLKLSCAASGFTFSTYTMSWVRQTPEKRLEWVATIVGGGGYTYYLDSVKGRFTISRDNAKNTLYLQMISLRSEDTALYYCARMGLTQRNALDYWGQGTSITVSS VL: DIVMTQSPSSLSVSEGEKVTLNCKSSQSLFNSGNQKNYLAWYQQKPGQPPKLLIYGASTRESGVPDRFTGSGFGTDFTLTISSVQAEDLAVYYCQNDHTYPLTFGAGAKLELK | 7390 | no binding | 80.8
13 | Ab17 (antibody, V domains shown, mouse monoclonal (hybridoma)) VH: QVQLKESGPGLVAPSQSLSITCTVSGFSLTSYAISWVRQPPGKGLEWLGEIWTGGGTNYNSALKSRLSISKDNSKSQVFLKMNSLQTDDTARYYCGRLSYGNSLDYWGQGTTLTVSS VL: DIVMTQSPSSLTVTAGEKVTMSCKSSQSLLNSGNQKNYLTWYQQKPGQPPKLLIYWASTRESGVPDRFTGSGSGTDFTLTVSSVQAEDLAVYYCQNNFIYPLTFGPGTKLELK | 11500 | no binding | 82.3
14 | Ab11 (antibody, V domains shown, mouse monoclonal (hybridoma)) VH: EVMLVESGGDLVKPGGSLKLSCAASGFTFSRYTMSWVRQTPEKRLEWVATVSVGSGNTYYLDSVKGRFTISRDNAKNTLFLQMNSLRSEDTALYYCTRLGQTQRNAVDYWGQGTSVTVSS VL: DIVMTQSPSFLSVSAGEKVTMSCKSSQSLFNGGNQKNYLAWYQQKPGQPPKLLIYGASTRDSGVPDRFTGSGSGTDFTLTISNVQAEDLAIYFCQNDHSFPLTFGAGTKLELK | 9800 | no binding | 80.8
